Measurements taken from patent US20030144209A1 (MASSACHUSETTS GERNERAL HOSPITAL, published 2003).
Square brackets hold non-standard residues; d marks the D form. Ends that are not written are not given here. * marks the point of attachment. Propionyl = CCC(=O)*

T1: human PTH-1 receptor (human, UniProt Q03431 27-593)
T1 sequence (looked up): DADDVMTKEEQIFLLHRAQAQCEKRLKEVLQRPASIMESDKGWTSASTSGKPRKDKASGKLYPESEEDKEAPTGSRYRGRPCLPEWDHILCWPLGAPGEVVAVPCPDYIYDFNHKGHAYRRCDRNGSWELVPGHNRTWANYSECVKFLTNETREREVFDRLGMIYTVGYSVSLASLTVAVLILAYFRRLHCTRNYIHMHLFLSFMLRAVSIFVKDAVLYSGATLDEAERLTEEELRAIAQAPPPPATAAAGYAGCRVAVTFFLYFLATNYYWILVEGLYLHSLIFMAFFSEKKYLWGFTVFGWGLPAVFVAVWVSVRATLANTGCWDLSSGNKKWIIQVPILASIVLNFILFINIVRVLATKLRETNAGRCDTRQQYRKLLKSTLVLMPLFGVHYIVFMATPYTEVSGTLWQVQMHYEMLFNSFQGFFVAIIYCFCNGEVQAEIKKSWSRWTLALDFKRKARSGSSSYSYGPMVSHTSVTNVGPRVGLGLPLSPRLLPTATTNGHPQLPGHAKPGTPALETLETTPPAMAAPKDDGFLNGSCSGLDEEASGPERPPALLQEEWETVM


Legend:
[1] = target: T1, human PTH-1 receptor; experiment: cell-based or functional assay
[2] = target: T2, human PTH-2 receptor (human, UniProt P49190 25-550); experiment: cell-based or functional assay
T2 sequence (P49190 25-550): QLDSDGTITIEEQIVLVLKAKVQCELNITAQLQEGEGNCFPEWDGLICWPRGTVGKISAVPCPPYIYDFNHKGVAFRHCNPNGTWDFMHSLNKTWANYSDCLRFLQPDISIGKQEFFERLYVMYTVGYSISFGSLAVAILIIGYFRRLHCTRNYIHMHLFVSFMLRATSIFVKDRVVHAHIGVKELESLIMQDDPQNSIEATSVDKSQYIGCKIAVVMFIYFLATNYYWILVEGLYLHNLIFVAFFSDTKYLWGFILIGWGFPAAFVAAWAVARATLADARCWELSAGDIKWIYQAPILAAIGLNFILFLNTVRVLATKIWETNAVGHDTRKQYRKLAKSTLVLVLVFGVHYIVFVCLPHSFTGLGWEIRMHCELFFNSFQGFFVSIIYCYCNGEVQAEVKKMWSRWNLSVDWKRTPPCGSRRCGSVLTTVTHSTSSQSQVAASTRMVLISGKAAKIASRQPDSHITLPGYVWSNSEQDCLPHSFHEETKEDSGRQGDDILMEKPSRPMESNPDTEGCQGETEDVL

[3] = target: T2, human PTH-2 receptor; experiment: competitive displacement of 125I-[Nle8,21]rPTH(1-34) from HPR2-7 cells expressing the human PTH-2 receptor
Text: Cell layers were washed three times before solubilization for determination of cell-associated radioactivity.

Molecule	phospholipase C (PLC) activity in HKRK-B7 cells at 1000 nM (% of the hPTH(1-34) maximum) [1]	AC activation relative to hPTH(1-34) [2]	AC activation relative to hPTH(1-34) [1]	EC50 of AC activation, fold lower than hPTH(1-34) [2]	EC50 of adenylyl cyclase (AC) activation [2]	PLC stimulation relative to 1000 nM hPTH(1-34) [2]	maximal AC response relative to hPTH(1-34) [2]	fold decrease in AC activity relative to the amino-bearing peptide [1]	fold higher apparent binding affinity relative to hPTH(1-34) [3]
VSEIQLMHNLGKHLNSMERVEWLRKKLQDVHNF-NH2 (peptide, UniProt P01270 33-65, looked up) [hPTH(2-34)]		≤ 10 fold	≤ 10 fold						
[Ac]VSEIQLMHNLGKHLNSMERVEWLRKKLQDVHNF-NH2 (Analog of human PTH(1-34) in which Ser1 is replaced by desamino glycine; also called [desaminoGly^1]; PTH(1-34); desamino-[Gly^1] peptide) [desamino-[Gly^1]hPTH(1-34)NH2]				3 fold	10 nM	50 % greater	2 fold	10 fold	10 fold

Now from value to molecule:

phospholipase C (PLC) activity in HKRK-B7 cells at 1000 nM (% of the hPTH(1-34) maximum) [1]	AC activation relative to hPTH(1-34) [2]	AC activation relative to hPTH(1-34) [1]	EC50 of AC activation, fold lower than hPTH(1-34) [2]	EC50 of adenylyl cyclase (AC) activation [2]	PLC stimulation relative to 1000 nM hPTH(1-34) [2]	maximal AC response relative to hPTH(1-34) [2]	fold decrease in AC activity relative to the amino-bearing peptide [1]	fold higher apparent binding affinity relative to hPTH(1-34) [3]	Molecule
50									[Gly^1]hPTH(1-34)NH2 (from UniProt P01270 32-65) (peptide)
			3 fold	10 nM	50 % greater	2 fold	10 fold	10 fold	[Propionyl]VSEIQLMHNLGKHLNSMERVEWLRKKLQDVHNF-NH2 (SMILES CCC(=O)N[C@H](C(=O)N[C@@H](CO)C(=O)N[C@@H](CCC(=O)O)C(=O)N[C@H](C(=O)N[C@@H](CCC(N)=O)C(=O)N[C@@H](CC(C)C)C(=O)N[C@@H](CCSC)C(=O)N[C@@H](Cc1c[nH]cn1)C(=O)N[C@@H](CC(N)=O)C(=O)N[C@@H](CC(C)C)C(=O)NCC(=O)N[C@@H](CCCCN)C(=O)N[C@@H](Cc1c[nH]cn1)C(=O)N[C@@H](CC(C)C)C(=O)N[C@@H](CC(N)=O)C(=O)N[C@@H](CO)C(=O)N[C@@H](CCSC)C(=O)N[C@@H](CCC(=O)O)C(=O)N[C@@H](CCCNC(=N)N)C(=O)N[C@H](C(=O)N[C@@H](CCC(=O)O)C(=O)N[C@@H](Cc1c[nH]c2ccccc12)C(=O)N[C@@H](CC(C)C)C(=O)N[C@@H](CCCNC(=N)N)C(=O)N[C@@H](CCCCN)C(=O)N[C@@H](CCCCN)C(=O)N[C@@H](CC(C)C)C(=O)N[C@@H](CCC(N)=O)C(=O)N[C@@H](CC(=O)O)C(=O)N[C@H](C(=O)N[C@@H](Cc1c[nH]cn1)C(=O)N[C@@H](CC(N)=O)C(=O)N[C@@H](Cc1ccccc1)C(N)=O)C(C)C)C(C)C)[C@@H](C)CC)C(C)C, Analog of human PTH(1-34) in which Ser1 is replaced by desamino alanine; also called [desamino Ala^1]PTH(1-34); desamino-[Ala^1] peptide) [desamino-[Ala^1]hPTH(1-34)NH2]
